Source: patent US20110105397A1, “METHOD FOR TREATING HEART FAILURE WITH STRESSCOPIN-LIKE PEPTIDES” (priority 2009, published 2011)
Where no end group is shown, it is not given here. The star is where a group is joined. Succinimide(1-Et,3-yl) = CCN1C(=O)CC(*)C1=O

T1: human corticotrophin releasing hormone receptor type 2 (CRHR2) (human, UniProt Q13324 1-411)
T1 sequence (looked up): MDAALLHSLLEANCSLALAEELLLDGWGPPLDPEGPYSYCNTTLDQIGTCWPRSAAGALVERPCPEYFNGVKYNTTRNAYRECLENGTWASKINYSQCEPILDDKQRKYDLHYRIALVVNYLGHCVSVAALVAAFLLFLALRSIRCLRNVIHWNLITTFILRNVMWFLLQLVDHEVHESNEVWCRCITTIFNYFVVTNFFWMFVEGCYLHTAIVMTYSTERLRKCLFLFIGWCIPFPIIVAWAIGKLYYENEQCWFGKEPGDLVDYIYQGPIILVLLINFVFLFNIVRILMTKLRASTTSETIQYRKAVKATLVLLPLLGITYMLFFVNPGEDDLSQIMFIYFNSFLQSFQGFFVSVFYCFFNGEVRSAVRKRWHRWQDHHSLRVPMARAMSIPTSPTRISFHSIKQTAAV


Molecular target: T1, human corticotrophin releasing hormone …
Experiment: cell-based or functional assay

Binder	Log DR [log10]	pA50
TKFTLSLDVPTNIMNLLFNIAKAKNLRAQAAAC(Succinimide(1-Et,3-yl))AHLMAQI-NH2 (N-terminus assumed; SMILES CC[C@H](C)[C@H](NC(=O)[C@H](CCC(N)=O)NC(=O)[C@H](C)NC(=O)[C@H](CCSC)NC(=O)[C@H](CC(C)C)NC(=O)[C@H](Cc1c[nH]cn1)NC(=O)[C@H](C)NC(=O)[C@H](CSC1CC(=O)N(CC)C1=O)NC(=O)[C@H](C)NC(=O)[C@H](C)NC(=O)[C@H](C)NC(=O)[C@H](CCC(N)=O)NC(=O)[C@H](C)NC(=O)[C@H](CCCNC(=N)N)NC(=O)[C@H](CC(C)C)NC(=O)[C@H](CC(N)=O)NC(=O)[C@H](CCCCN)NC(=O)[C@H](C)NC(=O)[C@H](CCCCN)NC(=O)[C@H](C)NC(=O)[C@@H](NC(=O)[C@H](CC(N)=O)NC(=O)[C@H](Cc1ccccc1)NC(=O)[C@H](CC(C)C)NC(=O)[C@H](CC(C)C)NC(=O)[C@H](CC(N)=O)NC(=O)[C@H](CCSC)NC(=O)[C@@H](NC(=O)[C@H](CC(N)=O)NC(=O)[C@@H](NC(=O)[C@@H]1CCCN1C(=O)[C@@H](NC(=O)[C@H](CC(=O)O)NC(=O)[C@H](CC(C)C)NC(=O)[C@H](CO)NC(=O)[C@H](CC(C)C)NC(=O)[C@@H](NC(=O)[C@H](Cc1ccccc1)NC(=O)[C@H](CCCCN)NC(=O)[C@@H](N)[C@@H](C)O)[C@@H](C)O)C(C)C)[C@@H](C)O)[C@@H](C)CC)[C@@H](C)CC)C(N)=O) [Cys-variant of stresscopin peptide with N-Ethylsuccinimide (NES) reactive group SEQ ID NO: 44]	~1.97	~7.5 -log10(M)
TKFTLSLDVPTNIMNLLFNIAKAKNLRCQAAANAHLMAQI-NH2 (not fully specified (residue 28); also: PEG with maleimide at both ends, peptide chains per PEG not given here) [Pegylated Cys-variant stresscopin-like peptide, NES-PEG MW20000 & DOUBLE-ENDED, SEQ ID NO: 98]	0.18	9.5 -log10(M)
TKFTLSLDVPTNIMNLLFNIAKAKNLRAQAAC(Succinimide(1-Et,3-yl))NAHLMAQI-NH2 (N-terminus assumed; SMILES CC[C@H](C)[C@H](NC(=O)[C@H](CCC(N)=O)NC(=O)[C@H](C)NC(=O)[C@H](CCSC)NC(=O)[C@H](CC(C)C)NC(=O)[C@H](Cc1c[nH]cn1)NC(=O)[C@H](C)NC(=O)[C@H](CC(N)=O)NC(=O)[C@H](CSC1CC(=O)N(CC)C1=O)NC(=O)[C@H](C)NC(=O)[C@H](C)NC(=O)[C@H](CCC(N)=O)NC(=O)[C@H](C)NC(=O)[C@H](CCCNC(=N)N)NC(=O)[C@H](CC(C)C)NC(=O)[C@H](CC(N)=O)NC(=O)[C@H](CCCCN)NC(=O)[C@H](C)NC(=O)[C@H](CCCCN)NC(=O)[C@H](C)NC(=O)[C@@H](NC(=O)[C@H](CC(N)=O)NC(=O)[C@H](Cc1ccccc1)NC(=O)[C@H](CC(C)C)NC(=O)[C@H](CC(C)C)NC(=O)[C@H](CC(N)=O)NC(=O)[C@H](CCSC)NC(=O)[C@@H](NC(=O)[C@H](CC(N)=O)NC(=O)[C@@H](NC(=O)[C@@H]1CCCN1C(=O)[C@@H](NC(=O)[C@H](CC(=O)O)NC(=O)[C@H](CC(C)C)NC(=O)[C@H](CO)NC(=O)[C@H](CC(C)C)NC(=O)[C@@H](NC(=O)[C@H](Cc1ccccc1)NC(=O)[C@H](CCCCN)NC(=O)[C@@H](N)[C@@H](C)O)[C@@H](C)O)C(C)C)[C@@H](C)O)[C@@H](C)CC)[C@@H](C)CC)C(N)=O) [Cys-variant of stresscopin peptide with N-Ethylsuccinimide (NES) reactive group SEQ ID NO: 45]	-0.01	9.48 -log10(M)
TKFTLSLDVPTNIMNLLFNIAKAKNLRCQAAANAHLMAQI (NES-PEG MW30000 on Cys 28; C-terminal amide (-NH2)) [Pegylated Cys-variant stresscopin-like peptide, NES-PEG MW30000, SEQ ID NO: 99]	0.8	8.94 -log10(M)
TKFTLSLDVPTNIMNLLFNIAKAKNLRAQAC(Succinimide(1-Et,3-yl))ANAHLMAQI-NH2 (N-terminus assumed; SMILES CC[C@H](C)[C@H](NC(=O)[C@H](CCC(N)=O)NC(=O)[C@H](C)NC(=O)[C@H](CCSC)NC(=O)[C@H](CC(C)C)NC(=O)[C@H](Cc1c[nH]cn1)NC(=O)[C@H](C)NC(=O)[C@H](CC(N)=O)NC(=O)[C@H](C)NC(=O)[C@H](CSC1CC(=O)N(CC)C1=O)NC(=O)[C@H](C)NC(=O)[C@H](CCC(N)=O)NC(=O)[C@H](C)NC(=O)[C@H](CCCNC(=N)N)NC(=O)[C@H](CC(C)C)NC(=O)[C@H](CC(N)=O)NC(=O)[C@H](CCCCN)NC(=O)[C@H](C)NC(=O)[C@H](CCCCN)NC(=O)[C@H](C)NC(=O)[C@@H](NC(=O)[C@H](CC(N)=O)NC(=O)[C@H](Cc1ccccc1)NC(=O)[C@H](CC(C)C)NC(=O)[C@H](CC(C)C)NC(=O)[C@H](CC(N)=O)NC(=O)[C@H](CCSC)NC(=O)[C@@H](NC(=O)[C@H](CC(N)=O)NC(=O)[C@@H](NC(=O)[C@@H]1CCCN1C(=O)[C@@H](NC(=O)[C@H](CC(=O)O)NC(=O)[C@H](CC(C)C)NC(=O)[C@H](CO)NC(=O)[C@H](CC(C)C)NC(=O)[C@@H](NC(=O)[C@H](Cc1ccccc1)NC(=O)[C@H](CCCCN)NC(=O)[C@@H](N)[C@@H](C)O)[C@@H](C)O)C(C)C)[C@@H](C)O)[C@@H](C)CC)[C@@H](C)CC)C(N)=O) [Cys-variant of stresscopin peptide with N-Ethylsuccinimide (NES) reactive group SEQ ID NO: 46]	0.04	9.43 -log10(M)
TKFTLSLDVPTNIMNLLFNIAKAKNLRCQAAANAHLMAQI (NES-PEG MW40000 on Cys 28; C-terminal amide (-NH2)) [Pegylated Cys-variant stresscopin-like peptide, NES-PEG MW40000, SEQ ID NO: 100]	1.1	8.64 -log10(M)
TKFTLSLDVPTNIMNLLFNIAKAKNLRC(Succinimide(1-Et,3-yl))QAAANAHLMAQI-NH2 (N-terminus assumed; SMILES CC[C@H](C)[C@H](NC(=O)[C@H](CCC(N)=O)NC(=O)[C@H](C)NC(=O)[C@H](CCSC)NC(=O)[C@H](CC(C)C)NC(=O)[C@H](Cc1c[nH]cn1)NC(=O)[C@H](C)NC(=O)[C@H](CC(N)=O)NC(=O)[C@H](C)NC(=O)[C@H](C)NC(=O)[C@H](C)NC(=O)[C@H](CCC(N)=O)NC(=O)[C@H](CSC1CC(=O)N(CC)C1=O)NC(=O)[C@H](CCCNC(=N)N)NC(=O)[C@H](CC(C)C)NC(=O)[C@H](CC(N)=O)NC(=O)[C@H](CCCCN)NC(=O)[C@H](C)NC(=O)[C@H](CCCCN)NC(=O)[C@H](C)NC(=O)[C@@H](NC(=O)[C@H](CC(N)=O)NC(=O)[C@H](Cc1ccccc1)NC(=O)[C@H](CC(C)C)NC(=O)[C@H](CC(C)C)NC(=O)[C@H](CC(N)=O)NC(=O)[C@H](CCSC)NC(=O)[C@@H](NC(=O)[C@H](CC(N)=O)NC(=O)[C@@H](NC(=O)[C@@H]1CCCN1C(=O)[C@@H](NC(=O)[C@H](CC(=O)O)NC(=O)[C@H](CC(C)C)NC(=O)[C@H](CO)NC(=O)[C@H](CC(C)C)NC(=O)[C@@H](NC(=O)[C@H](Cc1ccccc1)NC(=O)[C@H](CCCCN)NC(=O)[C@@H](N)[C@@H](C)O)[C@@H](C)O)C(C)C)[C@@H](C)O)[C@@H](C)CC)[C@@H](C)CC)C(N)=O) [Cys-variant of stresscopin peptide with N-Ethylsuccinimide (NES) reactive group SEQ ID NO: 47]	-0.03	9.5 -log10(M)
TKFTLSLDVPTNIMNLLFNIAKAKNLRCQAAANAHLMAQI (NES-PEG MW80000 & BRANCHED on Cys 28; C-terminal amide (-NH2)) [Pegylated Cys-variant stresscopin-like peptide, NES-PEG MW80000 & BRANCHED, SEQ ID NO: 101]	1.9	7.84 -log10(M)
